The source of these data is the DeepSol protein solubility set.

This series can be described thus: soluble on expression in E. coli; label from the status in PepcDB or PDB records.
For the sequence “AQGLQARFQLLRVLEVPADDAVAKGLEISFGEPVALIERLGLADEEPISVGSGYFPLKRFPDFLEPENIKILQEQQSISQFLQQVYGCDHIRRSTCVSARLVQPQDAKWLQIPLNQPILLAESVNVDQAGNVIEYGVTRLRGDRME”, the “soluble on expression in E. coli” value is on record as “not soluble”.

Turning to “MLKTPLYESHMAANAKMVDFSGWSMPINYGSQIQEHNNVREDCGIFDVSHMLAVDIQGSEAEKFLRYLLANDVAKLQENKAQYGCMLNHDAGIVDDLITYKVTDEHFRIVVNAGNRESDVAWFNQNAQNFDVAITPQTDLAIVAVQGPKAVAVIKRVVTKEIATEIEALLPFSFKFFSKWMVARTGYTGEDGFEVILPATQVKKFWDSLLENGAQPAGLGARDTLRLEAGMHLYGADMDTSTTPLERGLGWSVDLSDEHRDFIGKKAYFAKKAQGVDTKWVGVVLKTKGVLRAGQEIDFDNGEKGYITSGSFSPTLKVAIGLAYVPKQADNPVVNIRGKELEVELVKPKFVKNGKSLI”, the “soluble on expression in E. coli” value is recorded as “not soluble”.

For “QERFVHVHKMITTGTIEEKIDVMLESKQTLNDQIIQSENWITELSTQELEEL”, the “soluble on expression in E. coli” value was “soluble”.

On to “MAKRQQRSNKPSSEYTCLGHLVNLIPGKEQKVEITNRNVTTIGRSRSCDVILSEPDISTFHAEFHLLQMDVDNFQRNLINVIDKSRNGTFINGNRLVKKDYILKNGDRIVFGKSCSFLFKYASSSSTDIENDDEKVSSESRSYRSHHHHHH”, for which the “soluble on expression in E. coli” value is on record as “soluble”.

For “MLVGLIGYGAIGKFLAEWLERNGFEIAAILDVRGEHEKMVRGIDEFLQREMDVAVEAASQQAVKDYAEKILKAGIDLIVLSTGAFADRDFLSRVREVCRKTGRRVYIASGAIGGLDAIFSASELIEEIVLTTRKNWRQFGRKGVIFEGSASEAAQKFPKNLNVAATLSIASGKDVKVRLVADEVEENIHEILVRGEFGEMEIRVRNRPMRENPKTSYLAALSVTRILRNLKEGLVV”, the “soluble on expression in E. coli” value is recorded as “soluble”.

Take “MAHHHHHHMHIGLAAAVPSPTTAPQWLQDIENQLLIRNAIELKPSQSIFDSYTTLHVSVLHLQTVEDERQRLRMERSRLTERVRELEQAAANSSLQTSYERELEAKKDALQDQLRVYMQRESDYYKALSEVKAVQEERDMLRLRSNKLDAELEQRTAELQLLHKEYTALRDEYDRVRLTVSEADRYLREVKTAKEKTVQLQHRIVTLEDEVNMLRRQLQEALKGETAAAVDKAKRANPNKDGEDAEVAPSPMHTTHSPHTDPCTTLSPNPLGAEPSHASMVISEAHTSSTLHGLCVLDDGKRFLTSGADKHIRLWNRQSPQAEKYFSSSSIALALDTSSHYLLAGCADHVVRFWDVNSLRVLEMTGHTEKVVAACLSSSAQHAFTASSDSTIKLWDVRRRESLRTLLCQSTCNDVTVAGDTVFSAHYNGKITVWDRRTATRSGEVVAHQRVATCVRVSANGQLCVSMGKDNVISVRDARVFTKTLFSVAPVQLVVMMNWARLSIAPSGQLCAVGSGRTSDLLLIRLHGGGQGDAEATDSASSPALVKVLKACVSNATSYGDQGSGSSKGPIFSTAWGASEGGPLVSISNDRCVQVWE”: the “soluble on expression in E. coli” value was “not soluble”.

Take “MLKELSILTGGDGVGFQSAPEQQSLQPAELKPVNVSINSIDELMLFFESLNYTPENFHGGNKSVPRITFDAVGEGWRSVSDQLPVKQKKMVFFRLMTPLVLLANEKVLQERQQVMSAPLDDAELIALAVKYKVISNPTQPLLASHRQALLERVDILPPSLVLAQAAKESGWGTSRFTLEGNALFGQWDFNGNGMEPKQKRQGMGRYGLARFETPLASVEGYLLNLNTHSAYYKMRQLRAQSRHANQMITGTALAGTLDRYSERGHAYVEMIRKMIRTNKLYLADEAYLNDDMPLHLLTRTN”: the “soluble on expression in E. coli” value was “soluble”.

For “MGSDKIHHHHHHMIPYNQSSVSTLQTKERKIDVFSVEGNVDNETVKSFGEEWTAFDSFNETEIYNAGDNYFDIVPETILKHITNALDVGCGTGRWSYYLSEKVGFIECIDPSEAVIAASSLLSGKNNIRISKAGVDNIPFADGTFDFVFSLGVLHHVPDTKKAVHACVQKLKMNGHILLYLYYNLENRGLIFKTLFHLSNSLRWMVSKLPGAIKRFVCDLLAIVIYMPFVIVSRILIKLNLAASVVSRVPLSWYADKSFNIIRNDSLDRFGTPLEQRFSKQQITDMLIHAGCTDIVFADNAPFWRVIAKKK”, the “soluble on expression in E. coli” value is reported as “not soluble”.

As for “DGYHLLQELGAIELAGDGEAAEAGGGGAAFRLTRTGQELAKLPVDPRIGRMILAAREQQCLAEMLIIAAALSVQDPRDRPMAEREAAESAHAKFADDKSEFLSFL”, the “soluble on expression in E. coli” value is reported as “not soluble”.
